Source: patent US20200291135A1 (INSPIRNA, published 2020)

Tests used:
[1] = biological target: T1, human Axl extracellular domain conjugated to an IgG Fc domain (human, UniProt P30530 26-451); test: competition ELISA: soluble hAxl-Fc (varied) equilibrated with z10, free z10 caught on plate-coated hMER
T1 construct: extracellular domain; also called hAxl; human Ax1; not shown: IgG Fc domain
T1 sequence (looked up): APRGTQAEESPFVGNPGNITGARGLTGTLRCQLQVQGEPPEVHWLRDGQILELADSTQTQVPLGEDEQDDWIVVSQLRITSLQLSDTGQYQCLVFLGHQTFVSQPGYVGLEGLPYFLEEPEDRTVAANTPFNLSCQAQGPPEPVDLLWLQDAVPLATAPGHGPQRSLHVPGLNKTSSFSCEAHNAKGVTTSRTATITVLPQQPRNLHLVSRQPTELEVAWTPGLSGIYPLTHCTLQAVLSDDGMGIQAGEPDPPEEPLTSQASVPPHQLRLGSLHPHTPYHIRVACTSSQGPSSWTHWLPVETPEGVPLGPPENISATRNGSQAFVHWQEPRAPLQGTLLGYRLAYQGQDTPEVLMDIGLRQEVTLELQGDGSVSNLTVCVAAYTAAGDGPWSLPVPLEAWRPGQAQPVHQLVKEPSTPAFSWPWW
Procedure: Plates were washed three times with PBS 0.1% Tween and blocked with 3% non-fat dry skim milk in PBS for 2 h.
During the saturation step, dilutions of the antigen hAxl (RnD Systems, 154-AL-100), hTyro3 (RnD Systems, 859-DK-100) or mMER (RnD Systems, 591-MR-100)] were prepared at 50 nM as the highest concentration, and serially diluted 1:1 to 0.098 nM in PBS. […] Then, the saturated plate was washed three times with PBS 0.1% Tween and the antigen-antibody mixture was added to the wells in duplicate and incubated for 1 h at room temperature. The plate was then washed three times with PBS 0.1% Tween and incubated with anti-human Alkaline Phosphatase antibody (Sigma, SAB 3701248) at a dilution of 1:3000 in PBS for 1 h at room temperature. After washing three times with PBS 0.1% Tween, 100 uL of Alkaline Phosphatase Yellow (pNPP) liquid substrate system (Sigma, P7998) was added in each well and incubated for 70 min at room temperature. Plates were read at 405 nm and at 570 nm, to correct plate inconsistencies, using Glomax Discover System from Promega The absorbance was plotted as a function of antigen concentration and the Kd was calculated using GraphPad Prism 7.0c.

[2] = biological target: T2, human MERTK expressed on cells (SKMEL5 melanoma cells; in vitro differentiated M2 macrophages) (human, UniProt Q12866 21-999); test: flow cytometry, APC-labeled z10 on MERTK-expressing SKMEL5 melanoma cells
T2 construct: Endogenous MERTK of human cells; also called surface MERTK
T2 sequence: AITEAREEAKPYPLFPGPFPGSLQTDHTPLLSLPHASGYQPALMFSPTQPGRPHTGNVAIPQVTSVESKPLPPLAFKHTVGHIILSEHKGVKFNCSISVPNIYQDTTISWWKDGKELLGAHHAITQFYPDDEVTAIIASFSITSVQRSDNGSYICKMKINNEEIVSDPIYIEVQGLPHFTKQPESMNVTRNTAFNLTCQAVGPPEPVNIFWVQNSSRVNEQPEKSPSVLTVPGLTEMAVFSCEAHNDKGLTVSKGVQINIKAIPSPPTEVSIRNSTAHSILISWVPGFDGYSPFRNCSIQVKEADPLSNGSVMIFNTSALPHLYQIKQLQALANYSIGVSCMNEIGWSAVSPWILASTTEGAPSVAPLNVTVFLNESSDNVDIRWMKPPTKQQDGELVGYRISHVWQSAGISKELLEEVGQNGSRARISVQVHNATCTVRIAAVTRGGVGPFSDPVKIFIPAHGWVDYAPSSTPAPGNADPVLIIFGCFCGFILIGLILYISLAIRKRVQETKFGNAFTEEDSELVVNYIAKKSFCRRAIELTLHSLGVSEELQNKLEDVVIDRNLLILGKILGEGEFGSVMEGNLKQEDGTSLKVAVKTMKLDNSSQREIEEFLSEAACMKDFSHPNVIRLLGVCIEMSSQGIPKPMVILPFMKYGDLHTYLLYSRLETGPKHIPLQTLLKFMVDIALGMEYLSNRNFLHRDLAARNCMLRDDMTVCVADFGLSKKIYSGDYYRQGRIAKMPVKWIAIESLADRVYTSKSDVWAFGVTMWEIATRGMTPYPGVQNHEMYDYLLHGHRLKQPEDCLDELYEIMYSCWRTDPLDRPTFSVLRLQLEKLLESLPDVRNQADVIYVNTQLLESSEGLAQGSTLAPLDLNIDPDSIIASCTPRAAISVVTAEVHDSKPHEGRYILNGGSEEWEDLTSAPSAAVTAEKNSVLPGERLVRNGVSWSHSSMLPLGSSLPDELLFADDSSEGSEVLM
Procedure: SKMEL5 cells were harvested with trypsin, washed twice with PBS and strained through a 70 µm filter. 50,000 cells were resuspended in 60 μL FACS buffer (2% BSA, 10 mM EDTA, 25 mM HEPES, 0.1% sodium azide in Ca/Mg-free PBS) containing 10% human AB serum (Sigma, H4522). […] The APC signals from live single cells were analyzed in FlowJo and the MFIs were plotted with GraphPad Prism. Single color control samples were used to create a compensation matrix.

binding result [1]: no binding (tested: 50 nM) | EC50 [2]: 6.7 nM
B1: z10 antibody (antibody, human IgG1, kappa, V domains shown)
VH: QVQLVQSGAEVKKPGASVKVSCKASGYTFTNYGMNWVRQAPGQGLEWMGWINTYTGEPTYADDFKGRVTFTTDTSTSTAYMELRSLRSDDMAVYYCARKSTVVSRYFDVWGQGTTVTVSS
VL: DIQMTQSPSFLSASVGDRVTITCKASQDVGDAVTWYQQKPGKAPKLLIYWASTRHTGVPDRFSGSGSGTDFTLTISSLQPEDFATYYCQQYRSYPLTFGQGTKLEIKR
notes: also called MERTK (z10) antibody
